Test results from patent publication US20030186325A1 (GlaxoSmithKline, published 2003).
Values belong to the binder of their own block, whether it stands above or below them.

What was measured:
α4β1 integrin [1] = target: T1, α4β1 integrin (UniProt P13612 34-1032; P05556 21-798); experiment: adhesion of J6 and HL60 cells to coated GST fusion with function blocking antibodies
T1 construct: whole, on cells; Endogenous integrin on the J6 and HL60 cell lines; adhesion run with 0.2 mM MnCl2 (and TPA for HL60); also called α4 integrin on J6 and HL60 cells
T1 sequence (P13612 34-1032, chain 1 of 2): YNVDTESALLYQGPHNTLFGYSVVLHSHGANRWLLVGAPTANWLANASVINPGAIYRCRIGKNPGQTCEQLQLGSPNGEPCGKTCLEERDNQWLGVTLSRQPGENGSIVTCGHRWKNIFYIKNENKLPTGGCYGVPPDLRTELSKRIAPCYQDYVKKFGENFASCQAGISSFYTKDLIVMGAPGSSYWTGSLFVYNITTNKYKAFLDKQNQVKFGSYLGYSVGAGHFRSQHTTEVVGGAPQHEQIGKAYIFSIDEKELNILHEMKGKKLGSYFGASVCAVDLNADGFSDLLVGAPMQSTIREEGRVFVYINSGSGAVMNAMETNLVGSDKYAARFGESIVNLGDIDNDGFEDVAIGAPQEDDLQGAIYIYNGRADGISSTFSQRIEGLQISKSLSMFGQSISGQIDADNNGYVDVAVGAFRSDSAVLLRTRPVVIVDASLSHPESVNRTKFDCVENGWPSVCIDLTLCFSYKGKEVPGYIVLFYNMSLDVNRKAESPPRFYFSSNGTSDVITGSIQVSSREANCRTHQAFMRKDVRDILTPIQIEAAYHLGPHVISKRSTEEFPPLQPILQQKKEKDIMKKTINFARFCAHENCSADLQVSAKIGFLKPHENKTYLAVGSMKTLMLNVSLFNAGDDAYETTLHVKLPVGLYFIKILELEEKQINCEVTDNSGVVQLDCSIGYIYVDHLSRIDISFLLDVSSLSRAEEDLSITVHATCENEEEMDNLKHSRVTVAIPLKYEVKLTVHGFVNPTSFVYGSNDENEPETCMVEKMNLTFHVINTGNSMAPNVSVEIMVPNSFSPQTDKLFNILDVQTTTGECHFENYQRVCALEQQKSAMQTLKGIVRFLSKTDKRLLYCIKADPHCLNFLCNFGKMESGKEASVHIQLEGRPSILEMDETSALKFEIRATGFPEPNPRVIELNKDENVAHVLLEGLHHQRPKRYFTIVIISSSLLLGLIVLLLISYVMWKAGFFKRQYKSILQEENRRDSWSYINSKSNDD
T1 sequence (P05556 21-798, chain 2 of 2): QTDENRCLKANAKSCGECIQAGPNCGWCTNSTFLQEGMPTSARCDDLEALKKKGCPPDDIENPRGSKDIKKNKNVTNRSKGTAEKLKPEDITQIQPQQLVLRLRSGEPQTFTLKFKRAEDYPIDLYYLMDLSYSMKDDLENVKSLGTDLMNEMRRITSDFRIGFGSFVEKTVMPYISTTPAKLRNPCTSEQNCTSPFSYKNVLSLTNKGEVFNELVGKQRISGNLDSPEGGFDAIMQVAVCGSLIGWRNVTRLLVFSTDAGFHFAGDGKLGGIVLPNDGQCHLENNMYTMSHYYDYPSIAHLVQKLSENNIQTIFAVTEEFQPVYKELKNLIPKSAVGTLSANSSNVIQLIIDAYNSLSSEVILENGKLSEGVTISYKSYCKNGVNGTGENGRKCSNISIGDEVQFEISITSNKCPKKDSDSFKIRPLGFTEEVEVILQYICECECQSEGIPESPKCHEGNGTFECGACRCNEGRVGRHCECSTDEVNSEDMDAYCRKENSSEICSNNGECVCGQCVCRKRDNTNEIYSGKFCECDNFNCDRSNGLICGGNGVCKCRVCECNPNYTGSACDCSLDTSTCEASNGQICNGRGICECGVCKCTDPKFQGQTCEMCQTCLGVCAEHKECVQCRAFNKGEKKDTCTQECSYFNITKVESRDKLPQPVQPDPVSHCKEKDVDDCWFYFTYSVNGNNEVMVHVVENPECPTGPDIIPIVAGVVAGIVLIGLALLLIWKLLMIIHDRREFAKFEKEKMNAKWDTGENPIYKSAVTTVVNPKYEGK
Procedure: Cells were incubated for 35 minutes at 37° C. in the presence of or absence of various function blocking anti-integrin antibodies at 10 μg/ml. To prebind the antibodies cells were preincubated on ice for 10 minutes before being moved to 37° C. Each data point represents the mean±SD of duplicate points. […] To stimulate α4β1 binding to OPN, 50 ng/ml TPA was also included. Cells were incubated for 35 minutes at 37° C. in the presence or absence of various function blocking anti-integrin antibodies at 10 μg/ml. To prebind the antibodies cells were preincubated on ice for 10 minutes before being moved to 37° C. Each data point represents the mean±SD of duplicate points.

α4β1 integrin [2] = target: T1, α4β1 integrin; experiment: J6 cell adhesion to coated GST fusion, with and without BIO1211
α5β1 integrin [3] = target: T2, α5β1 integrin (UniProt P08648 42-1049; P05556 21-798); experiment: J6 cell adhesion to coated GST fusion that is left in the presence of BIO1211
T2 construct: whole, on cells; Endogenous integrin on J6 cells
T2 sequence (P08648 42-1049, chain 1 of 2): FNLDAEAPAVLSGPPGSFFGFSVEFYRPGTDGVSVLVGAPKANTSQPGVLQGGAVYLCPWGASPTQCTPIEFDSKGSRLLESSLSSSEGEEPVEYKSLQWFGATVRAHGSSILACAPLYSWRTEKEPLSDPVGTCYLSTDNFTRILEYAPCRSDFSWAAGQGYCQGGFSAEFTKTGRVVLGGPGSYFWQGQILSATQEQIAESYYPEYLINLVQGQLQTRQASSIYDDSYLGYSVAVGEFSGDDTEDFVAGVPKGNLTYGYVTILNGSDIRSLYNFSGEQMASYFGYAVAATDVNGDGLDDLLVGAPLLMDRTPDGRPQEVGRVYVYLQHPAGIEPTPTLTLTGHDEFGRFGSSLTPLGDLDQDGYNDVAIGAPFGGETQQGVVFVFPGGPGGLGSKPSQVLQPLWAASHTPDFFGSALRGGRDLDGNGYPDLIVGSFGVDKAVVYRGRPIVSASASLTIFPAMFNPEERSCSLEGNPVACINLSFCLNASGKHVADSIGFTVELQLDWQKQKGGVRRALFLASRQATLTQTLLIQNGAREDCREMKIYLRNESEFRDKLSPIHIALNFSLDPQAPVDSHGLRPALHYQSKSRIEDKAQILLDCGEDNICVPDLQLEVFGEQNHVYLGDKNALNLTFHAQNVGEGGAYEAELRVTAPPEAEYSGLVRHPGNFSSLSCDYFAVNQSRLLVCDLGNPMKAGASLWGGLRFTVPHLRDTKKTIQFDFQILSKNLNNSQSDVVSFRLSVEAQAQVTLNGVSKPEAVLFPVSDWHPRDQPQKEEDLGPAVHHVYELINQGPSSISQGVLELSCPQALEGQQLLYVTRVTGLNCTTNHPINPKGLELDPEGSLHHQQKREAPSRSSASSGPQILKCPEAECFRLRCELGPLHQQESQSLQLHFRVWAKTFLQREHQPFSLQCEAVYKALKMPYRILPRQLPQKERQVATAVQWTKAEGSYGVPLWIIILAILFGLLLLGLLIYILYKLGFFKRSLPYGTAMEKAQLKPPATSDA
T2 sequence (P05556 21-798, chain 2 of 2): as the sequence (P05556 21-798, chain 2 of 2) above

α5β1 integrin [4] = target: T2, α5β1 integrin; experiment: J6 cell adhesion to coated GST fusion in the presence of BIO1211

- binding result (α4β1 integrin [1]): binds
B1: GST fusion protein representing intact osteopontin (aa17-314) (ligand)
chain: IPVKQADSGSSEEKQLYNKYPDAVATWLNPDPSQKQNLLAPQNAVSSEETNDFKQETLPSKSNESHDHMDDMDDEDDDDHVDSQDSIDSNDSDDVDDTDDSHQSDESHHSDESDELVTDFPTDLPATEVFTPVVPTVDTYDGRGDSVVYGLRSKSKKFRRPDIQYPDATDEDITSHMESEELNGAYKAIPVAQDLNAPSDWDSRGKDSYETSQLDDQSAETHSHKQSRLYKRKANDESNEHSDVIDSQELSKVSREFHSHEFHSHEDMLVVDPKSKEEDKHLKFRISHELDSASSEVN
notes: Expressed in E. coli UT5600; coated on plates; also called intact OPN; full length OPN; not shown: GST carrier and the linker of the modified pGEX-2T vector

- binding result (α4β1 integrin [2]): binds
- binding result (α5β1 integrin [3]): binds
B2: GST fusion protein of thrombin cleaved OPN (aa17-168) (ligand)
chain: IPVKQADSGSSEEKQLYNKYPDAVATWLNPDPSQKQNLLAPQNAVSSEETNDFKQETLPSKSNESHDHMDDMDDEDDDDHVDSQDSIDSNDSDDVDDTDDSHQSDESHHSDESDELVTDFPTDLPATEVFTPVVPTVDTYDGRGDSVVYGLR
notes: Stop codon after aa168, so that Arg168 is the free C-terminus; also called thrombin cleaved fragment; not shown: GST carrier and the linker of the modified pGEX-2T vector

- binding result (α5β1 integrin [4]): binds
- binding result (α4β1 integrin [2]): binds
B3: GST fusion protein of OPN aa125-168 (ligand)
chain: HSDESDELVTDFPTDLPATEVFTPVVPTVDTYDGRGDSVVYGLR
notes: not shown: GST carrier and the linker of the modified pGEX-2T vector
